From patent US20190071514A1, “ANTI-CD39 ANTIBODIES” (INNATE PHARMA, priority 2016, published 2019)

Experiments:
[1] = biological target: T1, human CD39 endogenously expressed on Ramos human lymphoma cells (human, UniProt P49961 1-510); test: cell-based or functional assay
T1 sequence: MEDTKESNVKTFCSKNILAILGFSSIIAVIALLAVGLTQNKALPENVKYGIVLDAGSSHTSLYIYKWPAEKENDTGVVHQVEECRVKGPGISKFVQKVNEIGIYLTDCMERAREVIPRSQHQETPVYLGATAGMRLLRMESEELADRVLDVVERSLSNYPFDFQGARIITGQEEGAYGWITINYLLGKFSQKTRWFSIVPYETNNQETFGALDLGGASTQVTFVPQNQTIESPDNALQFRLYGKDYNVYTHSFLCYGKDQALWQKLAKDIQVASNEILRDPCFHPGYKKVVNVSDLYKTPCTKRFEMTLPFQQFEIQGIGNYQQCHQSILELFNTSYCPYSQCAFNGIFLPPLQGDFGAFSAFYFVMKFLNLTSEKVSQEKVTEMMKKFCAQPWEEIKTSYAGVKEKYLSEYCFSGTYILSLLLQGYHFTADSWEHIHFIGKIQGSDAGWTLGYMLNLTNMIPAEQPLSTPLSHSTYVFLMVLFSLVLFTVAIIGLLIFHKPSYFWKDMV

[2] = biological target: T2, Human CD39-L2 (human, UniProt O75354 61-484, limits assumed); test: ELISA, recombinant isoform coated, dose range of antibody
T2 construct: Recombinant protein coated on ELISA plates; also called NTPDase6; ENTPD6
T2 sequence: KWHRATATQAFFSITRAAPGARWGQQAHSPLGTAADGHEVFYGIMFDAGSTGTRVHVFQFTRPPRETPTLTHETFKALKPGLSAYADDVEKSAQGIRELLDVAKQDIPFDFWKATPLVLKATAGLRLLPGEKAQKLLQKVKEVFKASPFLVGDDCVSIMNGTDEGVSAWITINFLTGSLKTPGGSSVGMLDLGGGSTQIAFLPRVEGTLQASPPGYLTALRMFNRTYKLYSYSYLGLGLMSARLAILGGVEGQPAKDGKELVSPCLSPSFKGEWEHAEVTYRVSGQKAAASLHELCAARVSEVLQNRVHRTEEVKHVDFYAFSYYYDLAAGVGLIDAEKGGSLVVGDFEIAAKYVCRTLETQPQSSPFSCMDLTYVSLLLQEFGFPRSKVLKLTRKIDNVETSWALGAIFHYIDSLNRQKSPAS
Method: (§1) Antibodies were tested for binding to recombinant human CD39 isoforms (Rec-huCD39 isoforms). The CD39 isoforms having amino acid sequences shown in the table below were coated in 96-well plate in PBS 1× at 500 ng/ml or 1 μg/ml at 4° C. overnight. Wells were washed in TBS Tween 20, and further saturated 2H at RT in TBS Blocking buffer (Thermo Fisher Scientific Inc.). Dose range concentration of primary antibody was incubated in TBS blocking buffer for 2 h at RT. Wells were washed in TBS Tween 20. […] Optical density was measured on Enspire at OD=450.

[3] = biological target: T3, Human CD39-L3 (human, UniProt O75355 44-485, limits assumed); test: as above
T3 construct: Recombinant protein coated on ELISA plates; also called NTPDase3; ENTPD3
T3 sequence: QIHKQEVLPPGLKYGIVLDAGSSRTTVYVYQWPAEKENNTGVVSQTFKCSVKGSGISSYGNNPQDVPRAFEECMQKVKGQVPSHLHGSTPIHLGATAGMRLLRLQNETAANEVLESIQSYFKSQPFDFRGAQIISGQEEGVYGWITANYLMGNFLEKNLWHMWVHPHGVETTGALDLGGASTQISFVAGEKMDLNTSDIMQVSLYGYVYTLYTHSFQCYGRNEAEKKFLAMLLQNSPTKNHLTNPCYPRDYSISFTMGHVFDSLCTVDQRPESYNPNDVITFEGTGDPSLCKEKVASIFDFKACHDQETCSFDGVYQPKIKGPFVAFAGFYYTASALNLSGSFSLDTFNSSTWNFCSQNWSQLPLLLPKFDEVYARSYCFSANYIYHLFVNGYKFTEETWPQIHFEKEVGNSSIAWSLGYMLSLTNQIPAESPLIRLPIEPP
Method: as §1

[4] = biological target: T4, Human CD39-L4 (human, UniProt O75356 25-428); test: as above
T4 construct: Recombinant protein coated on ELISA plates; also called NTPDase5; ENTPD5
T4 sequence: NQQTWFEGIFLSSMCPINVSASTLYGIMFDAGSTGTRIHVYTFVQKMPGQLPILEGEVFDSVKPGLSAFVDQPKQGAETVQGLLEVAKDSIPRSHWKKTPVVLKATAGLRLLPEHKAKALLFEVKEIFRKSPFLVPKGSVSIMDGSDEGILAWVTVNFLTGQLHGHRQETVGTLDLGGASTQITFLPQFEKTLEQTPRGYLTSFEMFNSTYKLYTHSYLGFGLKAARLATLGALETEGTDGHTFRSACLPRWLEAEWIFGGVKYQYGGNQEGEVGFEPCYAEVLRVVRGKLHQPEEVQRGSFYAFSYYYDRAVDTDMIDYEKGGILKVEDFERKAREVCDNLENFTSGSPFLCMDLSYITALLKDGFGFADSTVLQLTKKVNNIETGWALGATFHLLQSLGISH
Method: as §1

B1: mAb7 (antibody, human IgG1, V domains shown)
VH: QIQLVQSGSELKKPGASVKVSCKASGYTFTHYGMNWVRQAPGKGLKWMGWINTYTGEPTYADDFKGRFVFSLDASVSTAYLQISSLKAEDTAVYYCARRRYEGNYVFYYFDYWGQGTTVTVSS
VL: DIQMTQSPSSLSASVGDRVTITCRASENIYSYFSWYQQKPGKAPKLLVYTAKTLAEGVPSRFSGSGSGTDFTLTISSLQPEDFATYYCQHHYVTPYTFGGGTKVEIK
notes: Produced as Fc silent recombinant human IgG1 with heavy chain N297Q (Kabat EU numbering) and huCk constant domain; also called anti-CD39 antibody mAb7
With B1 the “inhibition of CD39 enzymatic activity (AMP generated by Ramos cells, Maldi TOF)” value [1] was no less than 90%, the binding result [2] was “no binding” and the binding result [3] was “no binding”. B1: no binding [4].
